Broadly, the stoichiometry N is the number of molecules, sites or subunits per partner or assembly.

The target in one data set is T1, Abf2 (Saccharomyces cerevisiae, UniProt Q02486 27-183, del1-26).
T1 sequence: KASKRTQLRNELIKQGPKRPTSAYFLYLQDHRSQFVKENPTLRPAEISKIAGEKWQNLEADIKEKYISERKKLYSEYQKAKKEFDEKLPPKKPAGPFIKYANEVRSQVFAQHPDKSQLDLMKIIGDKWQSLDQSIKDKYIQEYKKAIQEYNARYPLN
Put plainly: EMSA; 25 mM Tris-HCl pH 7.4, 100 mM NaCl, 0.1 mg/ml BSA, 10 min, 30 C (Abf2) or 37 C (TFAM); Cy3 probes 75 nM, ssDNA 10 uM, dsDNA 4 uM; Mgm101 as in Pevala et al. The conditions noted are these: protein: recombinant, tags: 6xHis-GST removed by PreScission, chain copies: 2, label: 5' Cy3. A general note: A gel shift assay detects complexes by their altered migration in electrophoresis.

For data set [1], the target named is T2, Saccharomyces cerevisiae mtDNA packaging protein Abf2 lacking the mitochondrial targeting sequence (S. cerevisiae), Q02486.
T2 chain: T1 sequence
Put plainly: SEC; final purification step of Abf2 on Superdex 75 10/300 GL in buffer B (50 mM ammonium acetate, pH 7.3, 500 mM KCl) with 5% (v/v) glycerol. The conditions noted are these: remark: other sources report otherwise. On the technique in general: SEC sorts molecules by how far they enter the pores of the column.

B1: dsDNA 49 bp (dsDNA)
DNA 1: AGCTACCATGCCTGCACGAATTAAGCAATTCGTAATCATGGTCATAGCT
DNA 2: AGCTATGACCATGATTACGAATTGCTTAATTCGTGCAGGCATGGTAGCT
In the case of B1, the binding result with Abf2 (blunt) was “binds”.

B2: Y-form (structured_DNA)
DNA 1: B1 DNA 1
DNA 2: AGCTATGACCATGATTACGAATTGCTTGGAATCCTGACGAACTGTAG
On to B2, for which, in the data set with Abf2 (Y-form), the binding result is given as “binds”.

B3: fork (structured_DNA)
DNA 1: B1 DNA 1
DNA 2: B2 DNA 2
DNA 3: CTACAGTTCGTCAGGATTCC
DNA 4: AATTCGTGCAGGCATGGTAGCT
Turning to B3, the binding result with Abf2 (fork) is “binds”.

B4: 5' flap (structured_DNA)
DNA 1: B1 DNA 1
DNA 2: AGCTATGACCATGATTACGAATTGCTT
DNA 3: GATGTCAAGCAGTCCTAAGGAATTCGTGCAGGCATGGTAGCT
As for B4, in the data set with Abf2 (flap 1:2 1:3, 5' flap 20 nt on strand 3), the binding result was “binds”.

B5: 3' flap (structured_DNA)
DNA 1: B1 DNA 1
DNA 2: AATTCGTGCAGGCATGGTAGCT
DNA 3: B2 DNA 2
Regarding B5, the binding result with Abf2 (flap 1:2 1:3, 3' flap 20 nt on strand 3) is listed as “binds”.

B6: 3' overhang (mixed)
DNA 1: B1 DNA 1
DNA 2: AATTCGTGCAGGCATGGTAGCT
As to B6, the binding result with Abf2 (3' overhang 27 nt) was “binds”.

B7: 5' overhang (mixed)
DNA 1: B1 DNA 1
DNA 2: AGCTATGACCATGATTACGAATTGCTT
Take B7: the binding result with Abf2 (5' overhang 22 nt) was “binds”.

B8: Saccharomyces cerevisiae mtDNA packaging protein Abf2 lacking the mitochondrial targeting sequence, Q02486 27-183 (natural protein)
chain: T1 sequence
In data set [1], B8 showed a stoichiometry N of 2.
